Results as given in patent publication US20250003951A1 (OXFORD UNIVERSITY INNOVATION, published 2025).
Positions count from the first letter of the chain named. Each block holds one binder with its values, some of them ahead of it.

Columns and labels:
Test in all cases: cell-based or functional assay
OX289-075 = molecular target: T1, OX289-075 (human)
T1 peptide: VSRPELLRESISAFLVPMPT

OX289-205 = molecular target: T2, OX289-205 (human)
T2 peptide: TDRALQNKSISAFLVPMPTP

OX289-009 = molecular target: T3, OX289-009 (human)
T3 peptide: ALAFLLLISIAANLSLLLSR

OX628-309 = molecular target: T4, OX628-309 (human)
T4 peptide: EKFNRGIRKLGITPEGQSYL

OX628-308 = molecular target: T5, OX628-308 (human)
T5 peptide: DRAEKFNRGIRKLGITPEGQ

OX289-221 = molecular target: T6, OX289-221 (human)
T6 peptide: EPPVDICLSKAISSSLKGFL

OX289-040 = molecular target: T7, OX289-040 (human)
T7 peptide: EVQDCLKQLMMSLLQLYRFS

OX802-321 = molecular target: T8, OX802-321 (human)
T8 peptide: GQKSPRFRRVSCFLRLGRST

OX802-322 = molecular target: T9, OX802-322 (human)
T9 peptide: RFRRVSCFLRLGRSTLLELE

OX289-052 = molecular target: T10, OX289-052 (human)
T10 peptide: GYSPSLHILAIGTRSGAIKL

OX289-284 = molecular target: T11, OX289-284 (human)
T11 peptide: GETGMFSLSTIRGHQYATY

OX289-067 = molecular target: T12, OX289-067 (human)
T12 peptide: VATFPVYTMVAIPIVCKD

OX885-560 = molecular target: T13, OX885-560 (human)
T13 peptide: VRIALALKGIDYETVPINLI

OX885-559 = molecular target: T14, OX885-559 (human)
T14 peptide: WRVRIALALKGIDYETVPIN

Clone size (percent repertoire), IFNγ+ sorted T cells after peptide stimulation (OX289-075): 42.4 % of repertoire
Clone size (percent repertoire), IFNγ+ sorted T cells after peptide stimulation (OX289-205): 42.4 % of repertoire
B1: OX289 Peptides 75/205 clone 1 TCR (TCR)
TCR alpha 1: NSVTQMEGPVTLSEEAFLTINCTYTATGYPSLFWYVQYPGEGLQLLLKATKADDKGSNKGFEATYRKETTSFHLEKGSVQVSDSAVYFCALRHKAAGNKLTFGGGTRVLVKPNIQNPDPAVYQLRD
TCR alpha 2: QQKEKSDQQQVKQSPQSLIVQKGGISIINCAYENTAFDYFPWYQQFPGKGPALLIAIRPDVSEKKEGRFTISFNKSAKQFSLHIMDSQPGDSATYFCAALFDGGSQGNLIFGKGTKLSVKPNIQNPDPAVYQLRD
TCR beta: AVVSQHPSWVICKSGTSVKIECRSLDFQATTMFWYRQFPKQSLMLMATSNEGSKATYEQGVEKDKFLINHASLTLSTLTVTSAHPEDSSFYICSASGPEKLFFGSGTQLSVLEDLNKVFPPEVAVFEPS

Clone size (percent repertoire), IFNγ+ sorted T cells after peptide stimulation (OX289-075): 13.9 % of repertoire
Clone size (percent repertoire), IFNγ+ sorted T cells after peptide stimulation (OX289-205): 13.9 % of repertoire
B2: OX289 Peptides 75/205 clone 3 TCR (TCR, V domains shown)
V domain 1: NSVTQMEGPVTLSEEAFLTINCTYTATGYPSLFWYVQYPGEGLQLLLKATKADDKGSNKGFEATYRKETTSFHLEKGSVQVSDSAVYFCALRGRNQGGKLIFGQGTELSVKP
V domain 2: GAVVSQHPSRVICKSGTSVKIECRSLDFQATTMFWYRQFPKQSLMLMATSNEGSKATYEQGVEKDKFLINHASLTLSTLTVTSAHPEDSSFYICSARLSSGGGYEQFFGPGTRLTVLE

Clone size (percent repertoire), IFNγ+ sorted T cells after peptide stimulation (OX289-009): 91.1 % of repertoire
B3: OX289 Peptide 9 clone 1 TCR (TCR, V domains shown)
V domain 1: RKEVEQDPGPFNVPEGATVAFNCTYSNSASQSFFWYRQDCRKEPKLLMSVYSSGNEDGRFTAQLNRASQYISLLIRDSKLSDSATYLCVVDFYTSGTYKYIFGTGTRLKVLA
V domain 2: B2 V domain 2 with L98D, S99R, S100E, G101A, G102A, E105G, Q106Y, F107T, P110S, L117V

Clone size (percent repertoire), IFNγ+ sorted T cells after peptide stimulation (OX628-309): 16.2 % of repertoire
Clone size (percent repertoire), IFNγ+ sorted T cells after peptide stimulation (OX628-308): 16.2 % of repertoire
B4: OX885 Peptides OX628-308/309 clone 2 TCR (TCR, V domains shown)
V domain 1: AQSVTQLDSQVPVFEEAPVELRCNYSSSVSVYLFWYVQYPNQGLQLLLKYLSGSTLVKGINGFEAEFNKSQTSFHLRKPSVHISDTAEYFCAVSGVLTGGGNKLTFGTGTQLKVEL
V domain 2: DAGITQSPRYKITETGRQVTLMCHQTWSHSYMFWYRQDLGHGLRLIYYSAAADITDKGEVPDGYVVSRSKTENFPLTLESATRSQTSVYFCASSEGTVSNQPQHFGDGTRLSILE

Clone size (percent repertoire), IFNγ+ sorted T cells after peptide stimulation (OX289-221): 10.9 % of repertoire
B5: OX289 Peptide 221 clone 2 TCR (TCR, V domains shown)
V domain 1: GDAKTTQPNSMESNEEEPVHLPCNHSTISGTDYIHWYRQLPSQGPEYVIHGLTSNVNNRMASLAIAEDRKSSTLILHRATLRDAAVYYCILRDVGGSEKLVFGKGTKLTVNP
V domain 2: AVVSQHPSWVICKSGTSVKIECRSLDFQATTMFWYRQFPKQSLMLMATSNEGSKATYEQGVEKDKFLINHASLTLSTLTVTSAHPEDSSFYICSAKGLENQPQHFGDGTRLSILE

Clone size (percent repertoire), IFNγ+ sorted T cells after peptide stimulation (OX289-040): 85.2 % of repertoire
B6: OX289 Peptide 40 clone 1 TCR (TCR, V domains shown)
V domain 1: NSVTQMEGPVTLSEEAFLTINCTYTATGYPSLFWYVQYPGEGLQLLLKATKADDKGSNKGFEATYRKETTSFHLEKGSVQVSDSAVYFCALIPTGGGNKLTFGTGTQLKVEL
V domain 2: AVVSQHPSWVICKSGTSVKIECRSLDFQATTMFWYRQFPKQSLMLMATSNEGSKATYEQGVEKDKFLINHASLTLSTLTVTSAHPEDSSFYICSARLAHSGTNTGELFFGEGSRLTVLE

Clone size (percent repertoire), IFNγ+ sorted T cells after peptide stimulation (OX628-309): 76.1 % of repertoire
Clone size (percent repertoire), IFNγ+ sorted T cells after peptide stimulation (OX628-308): 76.1 % of repertoire
B7: OX885 Peptides OX628-308/309 clone 1 TCR (TCR, V domains shown)
V domain 1: KTTQPPSMDCAEGRAANLPCNHSTISGNEYVYWYRQIHSQGPQYIIHGLKNNETNEMASLIITEDRKSSTLILPHATLRDTAVYYCIVRVAVTNAGKSTFGDGTTLTVKP
V domain 2: EAQVTQNPRYLITVTGKKLTVTCSQNMNHEYMSWYRQDPGLGLRQIYYSMNVEVTDKGDVPEGYKVSRKEKRNFPLILESPSPNQTSLYFCASRYYSADTQYFGPGTRLTVLE

Clone size (percent repertoire), IFNγ+ sorted T cells after peptide stimulation (OX802-321): 47.4 % of repertoire
Clone size (percent repertoire), IFNγ+ sorted T cells after peptide stimulation (OX802-322): 47.4 % of repertoire
B8: OX802 Peptides 321/322 clone 1 TCR (TCR)
TCR alpha 1: AGQSLEQPSEVTAVEGAIVQINCTYQTSGFYGLSWYQQHDGGAPTFLSYNALDGLEETGRFSSFLSRSDSYGYLLLQELQMKDSASYFCAVLKKGYALNFGKGTSLLVTPHIQNPDPAVYQLRD
TCR alpha 2: KDQVFQPSTVASSEGAVVEIFCNHSVSNAYNFFWYLHFPGCAPRLLVKGSKPSQQGRYNMTYERFSSSLLILQVREADAAVYYCAVAGGYNKLIFGAGTRLAVHPYIQNPDPAVYQLRD
TCR beta: EAGVVQSPRYKIIEKKQPVAFWCNPISGHNTLYWYLQNLGQGPELLIRYENEEAVDDSQLPKDRFSAERLKGVDSTLKIQPAELGDSAVYLCASSLEAGDSYEQYFGPGTRLTVTEDLKNVFPPEVAVFEPS

Clone size (percent repertoire), IFNγ+ sorted T cells after peptide stimulation (OX289-052): 27.3 % of repertoire
B9: OX289 Peptide 52 clone 1 TCR (TCR)
TCR alpha: AQSVTQPDIHITVSEGASLELRCNYSYGATPYLFWYVQSPGQGLQLLLKYFSGDTLVQGIKGFEAEFKRSQSSFNLRKPSVHWSDAAEYFCAVGAYSSASKIIFGSGTRLSIRPNIQNPDPAVYQLRD
TCR beta 1: EPEVTQTPSHQVTQMGQEVILRCVPISNHLYFYWYRQILGQKVEFLVSFYNNEISEKSEIFDDQFSVERPDGSNFTLKIRSTKLEDSAMYFCASRDRGSGANVLTFGAGSRLTVLEDLKNVFPPEVAVFEPS
TCR beta 2: AVVSQHPSWVICKSGTSVKIECRSLDFQATTMFWYRQFPKQSLMLMATSNEGSKATYEQGVEKDKFLINHASLTLSTLTVTSAHPEDSSFYICSGGWGPNTGELFFGEGSRLTVLEDLKNVFPPEVAVFEPS

Clone size (percent repertoire), IFNγ+ sorted T cells after peptide stimulation (OX289-284): 96 % of repertoire
B10: OX289 Peptide 284 clone 1 TCR (TCR)
TCR alpha: RKEVEQDPGPFNVPEGATVAFNCTYSNSASQSFFWYRQDCRKEPKLLMSVYSSGNEDGRFTAQLNRASQYISLLIRDSKLSDSATYLCVVNKATSGTYKYIFGTGTRLKVLANIQNPDPAVYQLRD
TCR beta 1: AVVSQHPSWVICKSGTSVKIECRSLDFQATTMFWYRQFPKQSLMLMATSNEGSKATYEQGVEKDKFLINHASLTLSTLTVTSAHPEDSSFYICSARDREAAGYGYTFGSGTRLTVVEDLNKVFPPEVAVFEPS
TCR beta 2: AVVSQHPSWVICKSGTSVKIECRSLDFQATTMFWYRQFPKQSLMLMATSNEGSKATYEQGVEKDKFLINHASLTLSTLTVTSAHPEDSSFYICSARLAHSGTNTGELFFGEGSRLTVLEDLKNVFPPEVAVFEPS

Clone size (percent repertoire), IFNγ+ sorted T cells after peptide stimulation (OX289-052): 10.7 % of repertoire
B11: OX289 Peptide 52 clone 2 TCR (TCR, V domains shown)
V domain 1: EDKVVQSPLSLVVHEGDTVTLNCSYEVTNFRSLLWYKQEKKAPTFLFMLTSSGIEKKSGRLSSILDKKELSSILNITATQTGDSAIYLCAVGHFSSRSSGSARQLTFGSGTQLTVLP
V domain 2: DAGVIQSPRHEVTEMGQEVTLRCKPISGHNSLFWYRQTMMRGLELLIYFNNNVPIDDSGMPEDRFSAKMPNASFSTLKIQPSEPRDSAVYFCASSLKVGVDSSYNEQFFGPGTRLTVLE

Clone size (percent repertoire), IFNγ+ sorted T cells after peptide stimulation (OX289-067): 81.1 % of repertoire
B12: OX289 Peptide 67 clone 1 TCR (TCR)
TCR alpha 1: QLLEQSPQFLSIQEGENLTVYCNSSSVFSSLQWYRQEPGEGPVLLVTVVTGGEVKKLKRLTFQFGDARKDSSLHITAAQPGDTGLYLCAGLDDKIIFGKGTRLHILPNIQNPDPAVYQLRD
TCR alpha 2: GIQVEQSPPDLILQEGANSTLRCNFSDSVNNLQWFHQNPWGQLINLFYIPSGTKQNGRLSATTVATERYSLLYISSSQTTDSGVYFCAVAGSNYQLIWGAGTKLIIKPDIQNPDPAVYQLRD
TCR beta: EAGVAQSPRYKIIEKRQSVAFWCNPISGHATLYWYQQILGQGPKLLIQFQNNGVVDDSQLPKDRFSAERLKGVDSTLKIQPAKLEDSAVYLCASSDPISGRGDEQFFGPGTRLTVLEDLKNVFPPEVAVFEPS

Clone size (percent repertoire), IFNγ+ sorted T cells after peptide stimulation (OX885-560): 96.5 % of repertoire
Clone size (percent repertoire), IFNγ+ sorted T cells after peptide stimulation (OX885-559): 96.5 % of repertoire
B13: OX885 Peptides 559/560 clone 1 TCR (TCR, V domains shown)
V domain 1: GIQVEQSPPDLILQEGANSTLRCNFSDSVNNLQWFHQNPWGQLINLFYIPSGTKQNGRLSATTVATERYSLLYISSSQTTDSGVYFCAARRVDNNNDMRFGAGTRLTVKP
V domain 2: DARVTQTPRHKVTEMGQEVTMRCQPILGHNTVFWYRQTMMQGLELLAYFRNRAPLDDSGMPKDRFSAEMPDATLATLKIQPSEPRDSAVYFCASGLAQPQHFGDGTRLSILE

Clone size (percent repertoire), IFNγ+ sorted T cells after peptide stimulation (OX802-321): 20 % of repertoire
Clone size (percent repertoire), IFNγ+ sorted T cells after peptide stimulation (OX802-322): 20 % of repertoire
B14: OX802 Peptides 321/322 clone 2 TCR (TCR, V domains shown)
V domain 1: KDQVFQPSTVASSEGAVVEIFCNHSVSNAYNFFWYLHFPGCAPRLLVKGSKPSQQGRYNMTYERFSSSLLILQVREADAAVYYCAVTGGYNKLIFGAGTRLAVHP
V domain 2: EAGVVQSPRYKIIEKKQPVAFWCNPISGHNTLYWYLQNLGQGPELLIRYENEEAVDDSQLPKDRFSAERLKGVDSTLKIQPAELGDSAVYLCASSLEAGDSYEQYFGPGTRLTVTE

Clone size (percent repertoire), IFNγ+ sorted T cells after peptide stimulation (OX289-221): 65.4 % of repertoire
B15: OX289 Peptide 221 clone 1 TCR (TCR, V domains shown)
V domain 1: SLAKTTQPISMDSYEGQEVNITCSHNNIATNDYITWYQQFPSQGPRFIIQGYKTKVTNEVASLFIPADRKSSTLSLPRVSLSDTAVYYCLVVPVYNQGGKLIFGQGTELSVKP
V domain 2: KAGVTQTPRYLIKTRGQQVTLSCSPISGHRSVSWYQQTPGQGLQFLFEYFSETQRNKGNFPGRFSGRQFSNSRSEMNVSTLELGDSALYLCASSSGTSGMGETQYFGPGTRLLVLE
